Measurements reported in patent US20240409617A1 (published 2024).

B1: Ab 39 (scFv, V domains shown)
VH: QVTLKESGPTLVKPTQTLTLTCTLSGVSLDTIGMRVSWIRQPPGKALEWLARIDWDDDKFYSTALKTRLTISKDTSKNQVVFTMTSMDPVDTATYYCARSGLLYDLDVWGRGTLVTVSS
VL: QSVVTQPPSVSGAPGQRVTISCTGSDSDIGANFVQWYQQLPGTAPKLLIWRNTNRPSGVPDRFSASKSGTSASLAITGLQAEDEADYFCQSYDSSLSAYVFGGGTKVTVL
B2: Ab 16 (scFv, V domains shown)
VH: QVQLVQSGGGVVQPGRSLRLSCAASGFTFSNYGMHWVRQAPGKGLEWVALIWERGSKKDYADSVKGRFTVSRDNSKNTLYLQMNSLRPEDTAVYFCAREGISMTGAEYFQHWGQGTLVTVSS
VL: QSVLTQPPSVSGSPGQRVTMSCTGSSSNIGAGYDVHWYQQVPGAAPRLLIYGTNNRPSGVPDRFSGSKSGTSASLTITGLQAEDEADYYCQSYDNSLTDPYVFGTGTKVTVL
B3: Ab 36 (scFv, V domains shown)
VH: QVQLQQSGPGLVKPSQTLSLTCAIFGDSVTSNSAAWNWIRQSPSRGLEWLGRTYYSSKWYNDYAVSVKSRVTINADTSKNQLSLQLNSVTPEDTAVYYCARGWLRLSFDPWGQGTLVTVSS
VL: NFMLTQPHSVSESPGKTVTISCTGSSGSIASNYVQWLQQRLGSAPTTVIYEDNQRPSGVPDRFSGSIDSSSNSASLTISGLKTEDEADYYCQSYDPNNHGVVFGGGTKLTVL
B4: Ab 31 (scFv, V domains shown)
VH: QVQLVQSGAEVKKPGSSVKVSCKASGGTFSSYTISWVRQAPGQGLEWMGGIIPILGTPNYAQKFQDRVAITADKSTSTAYMELSSLRSEDTAVYYCAVGSGWYSGFDYWGQGTLVTVSS
VL: NFMLTQPHSVSESPGKTVTISCTGSSGSIASNYVQWYQQRPGSAPTTVIYEDSQRPSGVPDRFSGSIDSSSNSASLTISGLKTEDEADYYCQSFHNSNPVIFGGGTKLTVL
B5: Ab 20 (scFv, V domains shown)
VH: QVQLVQSGGGSVKPGGSLRLSCAASGYRLSDYYMHWVRQAPGKGLEWVANIKQDGSEKYYVDSVKGRFTISRDNAKNSLYLQMNSLRAEDTAVYYCARVRGWSRGYFDYWGQGTLVTVSS
VL: NFMLTQPHSVSESPGKTVTISCTGSSGSIASNYVQWYQQRPGSAPTTVIYEDNQRPSGVPDRFSGSIDSSSNSASLLISGLKTEDEADYYCQSYDSSNHWVFGGGTKLTVL
B6: Ab 13 (scFv, V domains shown)
VH: QVTLKESGPKLVKPTQTLTLTCTFSGFSLSTSGVGVGWIRQPPGKALEWLALIYWDDDKRYSPSLKSRLTIAKDTSKYQVVLTMTNMDPVDTATYYCARISGSGYFYPFDIWGQGTMVTVSA
VL: NFMLTQPHSVSESPGKTVTISCTRSSGSIASNYVQWYQQRPGSAPTTVIYEDNQRPSGVPDRFSGSIDSSSNSASLTISGLKTEDEADYYCQSYDSSNLWVFGGGTKLTVL
B7: Ab 38 (scFv, V domains shown)
VH: QVTLKESGPTLVKPTQTLTLTCTFSGFSLTTSGVSVGWIRQPPGKALEWLALIHWDDDKRYSPSLRSRLTITRDTSKNQVVLTVTDMDPADTGTYYCASFIMTVYAEYFEDWGQGTLVTVSS
VL: EIVLTQSPATLSVSPGERATLSCRASQSVSSNLAWYQQKPGQAPRLLMYDVSTRATGIPARFSGSGSGTEFSLTISSLQSEDFAVYYCQQRGAWPLTFGGGTKVEIK
B8: Ab 29 (scFv, V domains shown)
VH: QVQLQQSGPGLVKPSQTLSLTCAISGDSVSSYSDAWNWIRQSPSRGLEWLGRTYYRSKWYNDYAVSVKSRITINPDTSKNQFSLQLSSVTPEDTAVYYCAREIVATTPFRNYYYGMDVWGQGTTVTVSS
VL: NFMLTQPHSVSESPGNTVTISCTRTSGSIASNYVQWYQQRPGSSPTTVIFQDKLRPSGVPDRFSGSIDSSSNSASLTISGLKTEDEADYYCQSYDSSSLWVFGGGTKLTVL
B9: Ab 34 (scFv, V domains shown)
VH: QVQLVQSGVEVKKPGESLKISCKGSGYSFTSYWIGWVRQMPGKGLEWMGIIYPGDSDTRYSPSFQGQVTISADKSISTAYLQWSSLKASDTAMYYCARTTYSYGSFDYWGQGTLVTVSS
VL: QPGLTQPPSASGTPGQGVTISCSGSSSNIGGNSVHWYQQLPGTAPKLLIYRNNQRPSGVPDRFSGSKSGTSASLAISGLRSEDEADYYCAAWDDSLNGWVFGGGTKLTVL
B10: Ab 17 (scFv, V domains shown)
VH: QVQLVQSGGGVVQPGRSLRLSCAASGFTFDDYAMHWVRQVPGKGLEWVSGIDWNSGVIGYADSVKGRFTISRDNVKNSLYLQMNSLRTEDSALYYCAKDIGPGGSGSYYAFDIWGQGTTVTVSS
VL: QSALTQPASVSGSPGQSITISCTGTSSDVGGSKYVSWYQQHPGKAPKVMIYDVTKRPSGVPDRFSGSKSGNTASLTISGLQAEDEADYYCAAWDDSLNGVVFGGGTKLTVL
B11: Ab 32 (scFv, V domains shown)
VH: QVQLVQSGAEVKKPGESLKISCKGSGYSFTSYWIGWVRQMPGKGLEWMGIIYPGDSDTRYSPSFQGQVTISADKSISTAYLQWSSLKASDTAMYYCARGWQWHDYWGQGTLVTVSS
VL: QTVVTQEPAVSVALGQTVRITCQGDSLRSYYASWYQQKPGQAPVLVVYDKDKRPSGIPDRFSGSTSGNTASLTITGAQAEDEADYYCNSRDRSDNHVVFGGGTKLTVL
B12: Ab 18 (scFv, V domains shown)
VH: EVQLVQSGGGVVQPGRSLRVSCAASGFSFSRYGMHWVRQAPGKGLEWVAFIRHDGSKKYYADSVEGRFTISRDNSRNTVSLEMNSLRGEDTAVYYCAKDGRLEAALDDWGQGTLVTVSS
VL: NFMLTQPHSMSGSAGKTVTVSCIRSSGSIANNFVQWYQQRPGSAPTTVIYEDNQRPSGVPDRFSGSIDSSSNSASLTISGLKTEDEADYYCQSYDSSNLVFGGGTRLTVL
B13: Ab 21 (scFv, V domains shown)
VH: QVQLVQSGGGLVQPGGSLRLSCATSGFTFDDYAMHWVRQAPGKGLEWVSGISWNSGSIGYVDSVKGRFTISRDNRNNKVYLQMNNLRAEDTAVYYCARDWWGSIDHWGLGTLVTVSS
VL: QSALTQPRSVSGSPGQSVTISCTGTSSDVGGYDYVSWYQQHPGKAPKLIIYDVSKRPSGVPDRFSGSKSGNTASLTVSGLQAEDEADYYCSSYTSSSPVVFGGGTKLTVL
B14: Ab 37 (scFv, V domains shown)
VH: QVQLVQSGAEVKKPGASVKVSCKASGYTFTSYGISWVRQAPGQGLEWMGWISTYNGNTNYAQKLQGRVTMTTDTSTSTAYMEVRSLRSDDTAVYYCARDVFGHFDYWGQGTLVTVSS
VL: NFMLTQPHSVSESPGKTVLISCTRSSGNIATNYVQWYQQRPGSAPTTVIYEDNQRPSGVPDRFSGSIDSSSNSASLTISGLKTEDEADYYCKSYDDGNHVFGGGTKLTVL
B15: Ab 8 (scFv, V domains shown)
VH: QVQLVQSGAEVKKPGSSVKVSCKASGGTFSSYAISWLRQAPGQGLEWMGWINPNSGGTNYAQKFQGRVTMTRDTSISTAYMELSRLRSDDTAVYYCARGSGGYYLGWGQGTLVTVSS
VL: QPGLTQPPSVSKGLRQTATLTCTGNSNNVGNQGAAWLQQHQGHPPKLLSYMNNNRPPGISERFSASRSGNTASLTITGLQPEDEADYYCSAWDSSLSRWVFGGGTKLSVL

Assays:
S1 = assay: BLI
S1-biotin(ACRO) = assay: BLI

| Binder | Kd (S1) [nM] | Kd (S1-biotin(ACRO)) [nM] |
| --- | --- | --- |
| B1 | < 0.001 |  |
| B2 | 2.18 | 2.18 |
| B3 | 0.0306 |  |
| B4 | 2040 |  |
| B5 | 5.01 | 5.01 |
| B6 | 1.14 | 1.14 |
| B7 | 0.22 |  |
| B8 | < 0.001 |  |
| B9 | 0.184 |  |
| B10 | 0.716 | 0.716 |
| B11 | 0.168 |  |
| B12 | 0.121 | 0.121 |
| B13 | 1.28 | 1.28 |
| B14 | 0.907 |  |
| B15 | 325 |  |
